B1: Thermoplasma acidophilum exosome subunit Rrp4 (TaciRrp4) (natural protein, UniProt Q9HIP3 1-236, looked up)
chain: MYQLGDVKKIVLPGDPIEVQGKMRNGVYRGQDNRYYSEYFGTLQVNDQFVDVVPFSGQYIPRKGDKVIGKVIEVGPSTWTVDINSPYFAMLHMNDTPWRMSSGDLKRYLNAGDYIYAKIMSVNEIKESWLTLKEPGLKKLEGGHMVLIHASRVPRVIGKGGGMVNMVKELTATRIIIGQNGLIWIDGPIEGVTMAIAAIEMIEREAHTEGLTARVESFLKELKGEKDGSQQNKADQ
notes: Exosome complex component Rrp4 of Thermoplasma acidophilum (N-terminal domain, S1 domain, KH domain); also called TaciRrp4-capping protein; source: E. coli Rosetta, from pET22b; purified (Ni-NTA, Superdex 200)

Holding throughout (test): MST; target (TaciRrp42 or TaciRrp41:42) labelled by RED-tris-NTA His-tag kit, 50 nM; ligand in sixteen serial dilutions (TaciRrp41 550 μM to 16.6 nM; TaciRrp4 200 μM to 6.1 nM); 30 min incubation; LED power and MST power 40%; triplicate
Common to all, as to settings: both partners purified

The target of test [1] is T1, TaciRrp41:42 complex (Thermoplasma acidophilum exosome core, Rrp41 with truncated Rrp42) (Thermoplasma acidophilum, UniProt Q9HIP2 1-248; Q9HIP1 20-240).
T1 construct: Exosome complex component Rrp41 of Thermoplasma acidophilum; as the chain of m1; Exosome complex component Rrp42 of Thermoplasma acidophilum, truncated core domain of residues 20-240; as the chain of m2; The complex was purified on Ni-NTA and labelled with the His-tag labelling kit (RED-tris-NTA) for MST; the oligomeric state in the MST sample was not measured; also called TaciRrp41/cd-TaciRrp42; …
T1 sequence 1: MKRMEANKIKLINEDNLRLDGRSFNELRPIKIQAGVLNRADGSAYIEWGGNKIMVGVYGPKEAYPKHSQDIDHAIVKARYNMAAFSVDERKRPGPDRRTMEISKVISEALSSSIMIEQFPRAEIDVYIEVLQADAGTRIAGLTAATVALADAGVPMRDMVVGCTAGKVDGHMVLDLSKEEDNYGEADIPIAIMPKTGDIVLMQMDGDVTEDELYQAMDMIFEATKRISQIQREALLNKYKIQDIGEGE
T1 sequence 2: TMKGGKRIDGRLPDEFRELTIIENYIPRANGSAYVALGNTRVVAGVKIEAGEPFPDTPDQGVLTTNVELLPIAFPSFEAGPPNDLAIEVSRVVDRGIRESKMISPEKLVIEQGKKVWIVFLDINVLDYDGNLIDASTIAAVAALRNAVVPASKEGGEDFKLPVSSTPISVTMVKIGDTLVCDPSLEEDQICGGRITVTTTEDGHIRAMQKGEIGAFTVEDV

In test [2] the target is T2, Thermoplasma acidophilum exosome subunit Rrp41 (TaciRrp41) (Thermoplasma acidophilum, UniProt Q9HIP2 1-248).
T2 construct: Exosome complex component Rrp41 of Thermoplasma acidophilum; Single subunit (pET22b) used as ligand in MST; in the crystals the chain came from the pETDuet-1 co-expression with TaciRrp42; source: E. coli BL21 (DE3), from pET22b alone or from pETDuet-1 co-expressed with TaciRrp42; purified (Ni-NTA, Superdex 200)
T2 sequence: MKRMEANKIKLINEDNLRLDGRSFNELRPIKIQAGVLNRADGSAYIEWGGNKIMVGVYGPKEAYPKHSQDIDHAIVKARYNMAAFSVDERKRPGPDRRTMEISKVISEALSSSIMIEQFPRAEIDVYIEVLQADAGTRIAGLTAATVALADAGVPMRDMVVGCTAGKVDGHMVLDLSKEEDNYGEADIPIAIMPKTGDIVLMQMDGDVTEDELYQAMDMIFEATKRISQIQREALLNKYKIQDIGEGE

Test [3] deals with B1.

In test [1], B1 came in with a Kd of 200 µM.

B2: Thermoplasma acidophilum exosome subunit Rrp42, truncated core domain, residues 20-240 (TaciRrp42) (domain or fragment, UniProt Q9HIP1 20-240, looked up)
chain: TMKGGKRIDGRLPDEFRELTIIENYIPRANGSAYVALGNTRVVAGVKIEAGEPFPDTPDQGVLTTNVELLPIAFPSFEAGPPNDLAIEVSRVVDRGIRESKMISPEKLVIEQGKKVWIVFLDINVLDYDGNLIDASTIAAVAALRNAVVPASKEGGEDFKLPVSSTPISVTMVKIGDTLVCDPSLEEDQICGGRITVTTTEDGHIRAMQKGEIGAFTVEDV
modifications: RED-tris-NTA fluorescent dye on the His tag (in MST)
notes: Exosome complex component Rrp42 of Thermoplasma acidophilum, truncated Rrp42 corresponding to the core domain composed of residues 20-240; Single subunit (pET28a) was the labelled target in MST; in the crystals the chain came from the pETDuet-1 co-expression; also called cd-TaciRrp42; source: E. coli BL21 (DE3), from pET28a alone or from pETDuet-1 co-expressed with TaciRrp41; purified (Ni-NTA, …)
On to B2, for which the Kd in test [2] amounted to 169 µM; in test [3], 4.82 µM.

By Kd is commonly meant the equilibrium constant for the complex coming apart. Low values mean higher affinity, high ones lower affinity.
